This note sets out measurements from patent publication EP4659811A1.

As a reminder, the EC50 is the concentration needed to bring the measured effect to its halfway point.

Assay [1] deals with VP1 pentamer of BKV genotype II (recombinant) (BK virus genotype II), P14996. As to the kind of experiment: ELISA, coated VP1 pentamer. As to conditions: remark: other sources report otherwise. (ELISA stands for enzyme-linked immunosorbent assay.)
Assay [2] has as its target VP1 pentamer of BKV genotype IV (recombinant) (BK virus genotype IV), P14996. Description: ELISA, coated VP1 pentamer. As to conditions: remark: other sources report otherwise.

B1: antibody G7P3 (antibody, V domains shown)
VH: EVQLVESGGGLVQPGGSLRLSCAASGFSFGSYSMNWVRQAPGKGLEWVSHISSGSSSIYYADSVKGRFTISRDSVKNSLYLQMNNLRAEDTAVYYCARGWTGYDAFDIWGQGTMVTVSS
VL: DIQMTQSPSSLSASVGDRVTITCRASQVISNYLAWYQEKPGKVPKLLIYAASTLQSGVPSRFSGSGTGTDFTLTIRSLQPEDVATYYCQKYNNAPLTFGGGTKVEIK
For B1, the EC50 in assay [1] was found to be 0.04 µg/mL.

B2: antibody E8P5 (antibody, V domains shown)
VH: EVQLVESGGGLVHPGGSLRLSCAASGFRFGTYSMNWVRQAPGKGLEWVSHISSGSSSIYYADSVKGRFTISRDSVKNSLYLQMNNLRAEDTAVYFCARGWTGYDAFDIWGQGTMVTVSS
VL: DIQMTQSPSSLSASVGDRVTITCRASQVISNYLAWYQEKPGEVPKLLIYAASTLQSGVPSRFSGSGTGTDFTLTISSLQPEDVATYYCQKYNNAPLTFGGGTKVEIK
Take B2: in assay [1], the EC50 worked out at 0.08 µg/mL.

B3: antibody C10P8 (antibody, V domains shown)
VH: QVQLQESGPGLVKPSQTLSLTCTVSGGSISSGRYYWSWIRQPAGKGLEWIGRVYFSGSTNYNPSLKNRVTLSVDTSKNQFSLKLSSVIAADTAVYYCARAVRDYGDSYSFDYWGQGTLVTVSS
VL: QSALTQPASVSGSPGQSITISCTGSSSDIGGYNYVSWYQVHPGKAPHLKIYDVVNRPSGVSNRFPGSKSGNTASLTISGLLADDEAYYYCCSYSIRGTPVFGGGTKLTVL
With B3, in assay [2], the EC50 stood at 10 µg/mL.

B4: antibody C4P7 (antibody, V domains shown)
VH: EVQLLESGGGLVQPGGSLRLSCAASGFTFSSYAMSWVRQAPGKGLEWVSSLTGSGGSTYYRDSVKGRFTIFRDNSKKTLYMQMNSLRAEDTAVYYCAKEGAYSYDFWYFDLWGRGTLVTVSS
VL: EIVLTQSPGTLSLSPGERATLSCRASQTVSGNYLAWYQQKPGQSPSLLIYGASSRATGIPDRFTGSGSGTDFTLTISRLEPADFAVYYCQQYGRPLTFGGGTKVEIK
In the case of B4, the EC50 in assay [1] was found to be 5 µg/mL.

B5: antibody E10P5 (antibody, V domains shown)
VH: QVQLQESGPGLVKPSQTLSLTCSVSGGSISSGNYYWSWIRQPAGKGLEWIGRIYTSGNTNYNPSLKSRVTMSVDTSKNQFSLKLSSVTATDTAVYYCARVRRDGYNAFDYWGQGTLVTVSS
VL: SYELTQPPSVSVSPGQTASIDCSGHNLGDKFTCWYQQKPGQSPVLVIYQDSKRPSGIPERFSGSNSGNTATLTISGTQAMDEADYYCQAWDSDTLYVFGTGTTVTVL
As to B5, in assay [1], the EC50 came out at 0.065 µg/mL.

B6: antibody B7P3 (antibody, V domains shown)
VH: EVQLVESGGGVVQPGRSLRLSCAASGFTFSNFGMHWVRQPPGKGLEWVAVISYDGSDKFYADSVKGRFTISRDNFKNTLYVQMNSLRAEDTAVYYCAKDRVRTKYYYDHSGPFDYWGRGTLVTVSS
VL: SYVLTQPPSVSVAPGQTARIACGGNNIGSKSVHWYQQRPGQAPVLVVYDDDDRPSGIPERFSGSNSGNTATLTISRVEAGDEADYFCQVWMTNSDRPVFGGGTKLTVL
Take B6: the half-maximal effective concentration (EC50) in assay [1] was 5.5 µg/mL.
